Results taken from patent US20250043302A1, “MUTATED HYDROXYPHENYLPYRUVATE DIOXYGENASE POLYPEPTIDE, AND CODING GENE AND USE THEREOF” (BEIJING DABEINONG BIOTECHNOLOGY CO., LTD., priority 2021, published 2025).
Substitutions are numbered along the chain they refer to. Numbers in names are those of the source.

Experiments:
Format in all cases: in vivo
[1] = tested on: Arabidopsis thaliana T1 plants; test: Topramezone tolerance of transgenic Arabidopsis thaliana T1 plants (spray, bleached leaf area grade, damage score); conditions: 7 DAT, Table 4; for Classification and statistics of the grade of pesticide damage: Grade 0 / Classification and statistics of the grade of pesticide damage: Grade 1 / Classification and statistics of the grade of pesticide damage: Grade 2 / Classification and statistics of the grade of pesticide damage: Grade 3: number of plants; for Scores: pesticide damage score 0-100
Method in brief: (§1)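 Read-out: per-plant damage grade 0–3 from proportion of bleached leaf area at 7 DAT (1 <50%, 2 >50%, 3 100%). Plants were T1 transformants, glufosinate-selected, plus wild-type CK, sprayed 18 days post-sowing. Rates: topramezone 25–200, isoxaflutole 35–280, mesotrione 52.5–420 g ai/ha.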

[2] = tested on: Arabidopsis thaliana T1 plants; test: Isoxaflutole tolerance of transgenic Arabidopsis thaliana T1 plants (spray, bleached leaf area grade, damage score); set-up: Scores (pesticide damage): scale not given here; conditions: spray, Arabidopsis thaliana T1 plants; for Classification and statistics of the grade of pesticide damage: Grade 0 (number of plants) / Classification and statistics of the grade of pesticide damage: Grade 1 (number of plants) / Classification and statistics of the grade of pesticide damage: Grade 2 (number of plants) / Classification and statistics of the grade of pesticide damage: Grade 3 (number of plants): 16 plants
Method in brief: as §1

[3] = tested on: Arabidopsis thaliana T1 plants; test: Mesotrione tolerance of transgenic Arabidopsis thaliana T1 plants (spray, bleached leaf area grade, damage score); set-up: Scores: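 damage score 0-100 computed as Σ(N×S)/(T×M)×100 over grades 0-3 with higher meaning more damage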; conditions: Arabidopsis thaliana T1 plants; for Grade 0 (classification and statistics of the grade of pesticide damage; number of plants) / Grade 1 (classification and statistics of the grade of pesticide damage; number of plants) / Grade 2 (classification and statistics of the grade of pesticide damage; number of plants) / Grade 3 (classification and statistics of the grade of pesticide damage; number of plants): 16 plants
Method in brief: as §1

[4] = isoxaflutole 35 g ai/ha (0.5x field concentration)
[5] = isoxaflutole 70 g ai/ha (1x field concentration)

B1: ZmHPPDm-F372A-02: nucleotide sequence encoding Zea mays HPPD with F372A; vector DBN11767 (nucleic acid)
DNA: ATGCCACCCACACCCACAGCAGCAGCGGCGGGCGCAGCGGTCGCAGCGGCGTCAGCGGCGGAGCAAGCGGCGTTCAGATTGGTTGGTCACCGCAACTTCGTGAGATTCAATCCTCGCTCAGATAGATTCCATACTCTGGCCTTCCACCATGTTGAGCTTTGGTGCGCTGATGCTGCTTCTGCTGCTGGAAGGTTCAGCTTCGGTTTGGGTGCTCCCCTCGCTGCTAGATCTGATTTGAGCACTGGTAACTCAGCACATGCTTCCCTCCTGCTTAGATCTGGCTCTCTGAGCTTCCTTTTCACTGCTCCATATGCTCATGGTGCTGATGCTGCTACAGCTGCTCTCCCTTCATTCTCCGCTGCTGCTGCTAGGAGATTCGCTGCTGATCACGGATTGGCTGTGAGGGCTGTTGCACTTAGAGTTGCTGATGCTGAGGAGGCCTTCCGCACCTCTGTTGCTGCTGGAGCCAGACCAGCTTTCGGACCTGTTGATCTCGGAAGGGGTTTCCGCCTGGCTGAGGTGGAGCTTTACGGCGATGTGGTTCTGCGCTACGTTAGCTATCCTGATGGTGCTGCTGGTGAACCTTTCCTTCCAGGATTCGAGGGTGTGGCCTCACCAGGTGCCGCTGATTACGGCCTGTCCAGATTCGACCACATTGTTGGAAATGTTCCTGAGCTTGCTCCAGCTGCTGCCTACTTCGCTGGCTTCACCGGATTCCATGAGTTCGCCGAGTTCACCACTGAGGATGTGGGAACTGCTGAGTCTGGTTTGAATAGCATGGTGCTCGCCAACAATTCAGAGAACGTTTTGCTCCCTCTGAATGAGCCCGTGCACGGAACAAAGAGAAGGTCCCAGATTCAAACCTTCTTGGATCACCACGGCGGCCCAGGTGTTCAGCATATGGCTCTCGCCTCCGATGACGTGTTGAGAACCCTCAGGGAGATGCAAGCCAGGTCTGCTATGGGTGGCTTCGAGTTCATGGCCCCACCTACAAGCGATTACTATGATGGTGTGCGCAGAAGGGCTGGCGACGTTCTTACCGAGGCTCAGATCAAGGAGTGCCAAGAGCTGGGCGTGCTTGTTGATAGAGATGACCAGGGAGTTCTGCTTCAAATTGCTCCCAAGCCAGTGGGCGACAGGCCTACTTTGTTCCTCGAGATTATCCAGAGAATCGGATGCATGGAGAGGGATGAGAAGGGTCAGGAGTACCAAAAGGGAGGTTGCGGCGGATTCGGCAAGGGAAATTTCTCACAACTCTTCAAGTCCATCGAGGACTATGAAAAGAGTCTGGAAGCGATGCAGGCAGCAGCAGCAGCAACCGCACAGGGGTCGTGA
modifications: ZmHPPDm-F372A-02 Nucleotide Sequence
notes: vector DBN11767
[1]; topramezone 25 g ai/ha (1×)
  Classification and statistics of the grade of pesticide damage: Grade 0: 16
  Classification and statistics of the grade of pesticide damage: Grade 1: 0
  Classification and statistics of the grade of pesticide damage: Grade 2: 0
  Classification and statistics of the grade of pesticide damage: Grade 3: 0
  Scores: 0
  Resistance evaluation: highly
[1]; topramezone 100 g ai/ha (4×)
  Classification and statistics of the grade of pesticide damage: Grade 0: 4
  Classification and statistics of the grade of pesticide damage: Grade 1: 12
  Classification and statistics of the grade of pesticide damage: Grade 2: 0
  Classification and statistics of the grade of pesticide damage: Grade 3: 0
  Scores: 25
  Resistance evaluation: moderately
[2]; [4]
  Resistance evaluation: Moderately
  Scores (pesticide damage): 33
  Classification and statistics of the grade of pesticide damage: Grade 0 (number of plants): 3
  Classification and statistics of the grade of pesticide damage: Grade 1 (number of plants): 10
  Classification and statistics of the grade of pesticide damage: Grade 2 (number of plants): 3
  Classification and statistics of the grade of pesticide damage: Grade 3 (number of plants): 0
[2]; [5]
  Resistance evaluation: Poorly
  Scores (pesticide damage): 67
  Classification and statistics of the grade of pesticide damage: Grade 0 (number of plants): 0
  Classification and statistics of the grade of pesticide damage: Grade 1 (number of plants): 1
  Classification and statistics of the grade of pesticide damage: Grade 2 (number of plants): 14
  Classification and statistics of the grade of pesticide damage: Grade 3 (number of plants): 1
[3]; mesotrione 52.5 g ai/ha
  Resistance evaluation: Moderately
  Scores: 31
  Grade 0 (classification and statistics of the grade of pesticide damage; number of plants): 3
  Grade 1 (classification and statistics of the grade of pesticide damage; number of plants): 11
  Grade 2 (classification and statistics of the grade of pesticide damage; number of plants): 2
  Grade 3 (classification and statistics of the grade of pesticide damage; number of plants): 0
[3]; mesotrione 105 g ai/ha
  Resistance evaluation: Poorly resistant
  Scores: 67
  Grade 0 (classification and statistics of the grade of pesticide damage; number of plants): 0
  Grade 1 (classification and statistics of the grade of pesticide damage; number of plants): 1
  Grade 2 (classification and statistics of the grade of pesticide damage; number of plants): 14
  Grade 3 (classification and statistics of the grade of pesticide damage; number of plants): 1

B2: ZmHPPDm-F383W-02: nucleotide sequence encoding Zea mays HPPD with F383W; vector DBN11768 (nucleic acid)
DNA: B1 DNA with G1117T, C1118T, T1119C, T1151G, C1152G
modifications: ZmHPPDm-F383W-02 Nucleotide Sequence
notes: vector DBN11768
[1]; topramezone 25 g ai/ha (1×)
  Classification and statistics of the grade of pesticide damage: Grade 0: 2
  Classification and statistics of the grade of pesticide damage: Grade 1: 9
  Classification and statistics of the grade of pesticide damage: Grade 2: 5
  Classification and statistics of the grade of pesticide damage: Grade 3: 0
  Scores: 40
  Resistance evaluation: poorly
[1]; topramezone 100 g ai/ha (4×)
  Classification and statistics of the grade of pesticide damage: Grade 0: 0
  Classification and statistics of the grade of pesticide damage: Grade 1: 4
  Classification and statistics of the grade of pesticide damage: Grade 2: 7
  Classification and statistics of the grade of pesticide damage: Grade 3: 5
  Scores: 69
  Resistance evaluation: non-resistant (non-resistant plants (scores 68-100))
[2]; [4]
  Resistance evaluation: Poorly
  Scores (pesticide damage): 42
  Classification and statistics of the grade of pesticide damage: Grade 0 (number of plants): 2
  Classification and statistics of the grade of pesticide damage: Grade 1 (number of plants): 8
  Classification and statistics of the grade of pesticide damage: Grade 2 (number of plants): 6
  Classification and statistics of the grade of pesticide damage: Grade 3 (number of plants): 0
[2]; [5]
  Resistance evaluation: Non-resistant
  Scores (pesticide damage): 96
  Classification and statistics of the grade of pesticide damage: Grade 0 (number of plants): 0
  Classification and statistics of the grade of pesticide damage: Grade 1 (number of plants): 0
  Classification and statistics of the grade of pesticide damage: Grade 2 (number of plants): 2
  Classification and statistics of the grade of pesticide damage: Grade 3 (number of plants): 14
[3]; mesotrione 52.5 g ai/ha
  Resistance evaluation: Poorly resistant
  Scores: 63
  Grade 0 (classification and statistics of the grade of pesticide damage; number of plants): 0
  Grade 1 (classification and statistics of the grade of pesticide damage; number of plants): 3
  Grade 2 (classification and statistics of the grade of pesticide damage; number of plants): 12
  Grade 3 (classification and statistics of the grade of pesticide damage; number of plants): 1
[3]; mesotrione 105 g ai/ha
  Resistance evaluation: Non-resistant
  Scores: 98
  Grade 0 (classification and statistics of the grade of pesticide damage; number of plants): 0
  Grade 1 (classification and statistics of the grade of pesticide damage; number of plants): 0
  Grade 2 (classification and statistics of the grade of pesticide damage; number of plants): 1
  Grade 3 (classification and statistics of the grade of pesticide damage; number of plants): 15
